The values below are quoted from earlier work in publication PMC8712716.

Some targets named below: TNF-alpha (Homo sapiens) (UniProt P01375); TGF-beta1 (Homo sapiens) (UniProt P01137); TGF-beta2 (Homo sapiens) (UniProt P61812); NGF-beta (Homo sapiens) (UniProt P01138); FGF-2 (Homo sapiens) (UniProt P09038); GRP78 (Homo sapiens) (UniProt P11021).

Where only a bound is given, the exact number is not on record here.

alpha-2-macroglobulin, sequence (P01023 24-1474): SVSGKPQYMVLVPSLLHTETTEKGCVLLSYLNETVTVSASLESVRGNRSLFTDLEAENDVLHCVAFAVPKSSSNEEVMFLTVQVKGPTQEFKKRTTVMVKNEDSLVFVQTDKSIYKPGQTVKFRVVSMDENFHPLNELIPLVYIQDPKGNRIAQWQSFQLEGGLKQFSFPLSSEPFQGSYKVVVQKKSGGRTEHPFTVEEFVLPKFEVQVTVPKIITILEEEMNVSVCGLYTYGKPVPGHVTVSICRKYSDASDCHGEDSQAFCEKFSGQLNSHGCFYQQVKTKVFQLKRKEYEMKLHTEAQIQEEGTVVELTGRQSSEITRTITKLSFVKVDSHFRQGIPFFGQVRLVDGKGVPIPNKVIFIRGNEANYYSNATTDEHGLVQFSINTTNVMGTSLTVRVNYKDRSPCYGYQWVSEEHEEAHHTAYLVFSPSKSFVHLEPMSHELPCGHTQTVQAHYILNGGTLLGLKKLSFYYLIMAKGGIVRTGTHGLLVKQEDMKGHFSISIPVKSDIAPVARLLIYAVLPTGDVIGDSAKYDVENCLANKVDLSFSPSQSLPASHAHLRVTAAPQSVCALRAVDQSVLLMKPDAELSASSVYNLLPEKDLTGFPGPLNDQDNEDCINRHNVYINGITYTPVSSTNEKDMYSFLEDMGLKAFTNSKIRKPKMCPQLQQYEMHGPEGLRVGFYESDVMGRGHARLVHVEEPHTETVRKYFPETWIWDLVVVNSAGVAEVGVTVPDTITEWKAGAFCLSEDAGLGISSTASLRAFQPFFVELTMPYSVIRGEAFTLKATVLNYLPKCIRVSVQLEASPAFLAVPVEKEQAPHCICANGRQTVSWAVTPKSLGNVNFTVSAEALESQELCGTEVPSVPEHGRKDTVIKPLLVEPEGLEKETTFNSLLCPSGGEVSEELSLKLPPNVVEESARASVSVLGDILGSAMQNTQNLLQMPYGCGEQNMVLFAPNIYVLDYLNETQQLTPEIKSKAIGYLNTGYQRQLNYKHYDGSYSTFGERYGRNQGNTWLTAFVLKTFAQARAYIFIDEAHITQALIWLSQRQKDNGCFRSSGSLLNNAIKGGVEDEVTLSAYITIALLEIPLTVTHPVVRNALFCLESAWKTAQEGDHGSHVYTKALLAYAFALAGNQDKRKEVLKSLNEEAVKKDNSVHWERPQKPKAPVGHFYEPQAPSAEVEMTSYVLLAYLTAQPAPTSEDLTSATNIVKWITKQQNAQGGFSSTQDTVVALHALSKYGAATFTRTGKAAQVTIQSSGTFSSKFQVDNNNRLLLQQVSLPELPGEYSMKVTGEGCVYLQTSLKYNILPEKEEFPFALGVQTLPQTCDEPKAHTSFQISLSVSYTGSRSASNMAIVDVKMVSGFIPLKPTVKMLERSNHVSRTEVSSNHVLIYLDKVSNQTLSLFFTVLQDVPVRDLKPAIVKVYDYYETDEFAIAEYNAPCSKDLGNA
TGF-beta1 (Homo sapiens), sequence (P01137 279-390): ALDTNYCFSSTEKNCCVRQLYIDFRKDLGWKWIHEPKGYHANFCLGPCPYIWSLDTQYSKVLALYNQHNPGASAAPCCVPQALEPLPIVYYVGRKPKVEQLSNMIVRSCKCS
GRP78 (Homo sapiens), sequence (P11021 19-654): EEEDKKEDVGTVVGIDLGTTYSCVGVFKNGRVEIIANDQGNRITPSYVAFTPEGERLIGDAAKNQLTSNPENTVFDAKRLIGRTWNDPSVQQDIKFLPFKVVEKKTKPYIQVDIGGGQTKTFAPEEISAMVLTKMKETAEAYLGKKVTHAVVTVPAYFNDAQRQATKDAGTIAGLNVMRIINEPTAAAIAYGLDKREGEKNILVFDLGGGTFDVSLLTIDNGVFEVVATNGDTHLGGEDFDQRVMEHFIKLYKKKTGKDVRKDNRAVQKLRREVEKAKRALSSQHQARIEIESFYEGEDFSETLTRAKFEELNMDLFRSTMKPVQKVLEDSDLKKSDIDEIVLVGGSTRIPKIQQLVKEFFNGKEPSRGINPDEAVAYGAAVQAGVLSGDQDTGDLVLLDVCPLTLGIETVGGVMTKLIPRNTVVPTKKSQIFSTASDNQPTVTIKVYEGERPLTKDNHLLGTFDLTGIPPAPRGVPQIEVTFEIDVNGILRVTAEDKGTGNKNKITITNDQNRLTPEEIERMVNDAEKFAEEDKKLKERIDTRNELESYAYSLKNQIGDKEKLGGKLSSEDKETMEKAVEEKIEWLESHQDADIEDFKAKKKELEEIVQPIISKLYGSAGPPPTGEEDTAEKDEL
NGF-beta (Homo sapiens), sequence (P01138 122-241): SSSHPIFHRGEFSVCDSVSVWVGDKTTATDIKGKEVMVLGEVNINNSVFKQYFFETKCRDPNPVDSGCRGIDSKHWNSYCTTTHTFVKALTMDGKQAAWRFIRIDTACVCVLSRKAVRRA
TNF-alpha (Homo sapiens), sequence (P01375 77-233): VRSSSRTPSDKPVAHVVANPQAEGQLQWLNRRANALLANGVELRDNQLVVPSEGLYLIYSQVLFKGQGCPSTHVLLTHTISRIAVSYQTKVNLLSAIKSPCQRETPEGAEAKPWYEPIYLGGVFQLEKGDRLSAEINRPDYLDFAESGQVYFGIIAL
TGF-beta2 (Homo sapiens), sequence (P61812 303-414): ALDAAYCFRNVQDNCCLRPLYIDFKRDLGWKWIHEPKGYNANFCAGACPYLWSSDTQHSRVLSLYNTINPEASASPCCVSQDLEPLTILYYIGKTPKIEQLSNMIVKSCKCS
FGF-2 (Homo sapiens), sequence (P09038 143-288): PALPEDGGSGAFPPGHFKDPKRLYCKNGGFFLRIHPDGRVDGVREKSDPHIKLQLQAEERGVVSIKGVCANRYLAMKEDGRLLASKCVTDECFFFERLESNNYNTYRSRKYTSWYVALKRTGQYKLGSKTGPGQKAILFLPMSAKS

In general, Kd refers to the concentration at which binding is half-saturated. In the case of “alpha-2-macroglobulin (from UniProt P01023)”, the Kd with TNF-alpha (Homo sapiens) is over 750 nM; with TGF-beta1 (Homo sapiens) it was 80 nM; with TGF-beta2 (Homo sapiens), 12 nM; with NGF-beta (Homo sapiens), 110 nM; with FGF-2 (Homo sapiens), 590 nM; with GRP78 (Homo sapiens) it was 0.15 nM.
